What is called Kd is the concentration at which binding is half-saturated.

Where no end group is shown, it is not given here. Ahx = NCCCCCC(=O)O

Six molecules from article doi:10.1101/2023.07.17.549407 (bioRxiv, 2023) can be followed below.

Experiment [1] has as its target T1, Human CHIP(21-154)-TPR domain (human, UniProt Q9UNE7 21-154).
T1 sequence: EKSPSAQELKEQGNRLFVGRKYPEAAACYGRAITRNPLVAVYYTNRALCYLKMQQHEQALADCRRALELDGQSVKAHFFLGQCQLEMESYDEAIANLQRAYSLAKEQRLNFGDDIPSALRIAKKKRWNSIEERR
Put plainly: crystal structure.

The target of experiment [2] is T2, carboxy-terminus of Hsp70 interacting protein (CHIP), recombinant (human, UniProt Q9UNE7 1-303).
T2 sequence: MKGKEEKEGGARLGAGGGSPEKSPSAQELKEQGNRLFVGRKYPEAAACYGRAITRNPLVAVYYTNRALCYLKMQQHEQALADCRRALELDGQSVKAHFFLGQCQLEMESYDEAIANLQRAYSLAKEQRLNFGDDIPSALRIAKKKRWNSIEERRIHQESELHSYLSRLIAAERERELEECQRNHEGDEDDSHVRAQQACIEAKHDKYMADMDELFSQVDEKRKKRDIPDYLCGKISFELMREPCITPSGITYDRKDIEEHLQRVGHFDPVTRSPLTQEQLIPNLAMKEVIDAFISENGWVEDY
Put plainly: fluorescence polarisation. (Fluorescence polarisation rises when a labelled molecule tumbles more slowly, as on binding a larger partner.)

Take EFLPKTPIFRPD [HsCHIC2(154-165)-c-term peptide]: the binding result in experiment [1] is given as “binds”.
As to Ac-LPKTPIFRPD [CHIC2 C-terminal 10-mer peptide Ac-LPKTPIFRPD], the binding result in experiment [2] was “binds”.
Turning to {FAM-Ahx}-IEEVD [Hsp70 C-terminal tracer (FAM-Ahx-IEEVD)], the binding result in experiment [2] is “binds”.
The same measure, in the same setting: the value for LWWPD (not fully specified (N-terminus); printed as FITC-Ahx-LWWPD) [CHIPOpt tracer (FITC-Ahx-LWWPD)] was “binds”.
Turning to {FAM-Ahx}-IWWPD [IWWPD tracer], the binding result in experiment [2] was “binds”.
For the molecule {FAM-Ahx}-IFRPD [labeled CHIC2 peptide (FAM-Ahx-IFRPD)], the Kd in experiment [2] was determined as 148 ± 6 nM.
